The values below come from the RNAGym collection of RNA variant scans (doi:10.1093/nar/gkz1192).

The labels stand for the following.
B1: CPEB3 Ribozyme (parent)
chain: UAACAGGGGGCCACAGCAGAAGCGUUCACGUCGCAGCCCCUGUCAGAUUCUGGUGAAUCUGCGAAUUCUGCUGUAUAUCUC

In the data set the parent is B1. The experiment in a line: self-cleavage, relative activity (ratio to wild type); higher = more cleavage; in vitro, sequencing. In a few lines: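 After error-prone PCR and barcoding, CPEB3 ribozyme mutant libraries were transcribed with T7 RNA polymerase at 37°C for 5 hours, then given 15 min with DNase I before an EDTA stop, and they cleaved during both steps. Reverse transcription with template switching preceded Illumina sequencing. Relative activity divides a variant's cleaved/total read fraction by the unmutated ribozyme's. At least 5 reads were required per variant, and three batches were averaged.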
As to A45U U51G, the self-cleavage is 0.46.

For the variant U69C U78A, the self-cleavage was 0.66.

For the variant A18U C59A, the self-cleavage was 0.17.

As for A47G U74A, the self-cleavage amounted to 1.21.

Take C29G U49A: the self-cleavage is 0.38.

In the case of C11G U80A, the self-cleavage turned out to be 0.76.

Regarding A28U U58G, the self-cleavage was 0.2.

Take U48C U49A: the self-cleavage is 0.48.

With G70C U78A, the self-cleavage was determined as 0.17.

For the variant U1C U48C, the self-cleavage turned out to be 0.41.

For the variant U1C U48A, the self-cleavage was found to be 0.16.

As to A20U G24C, the self-cleavage came out at 0.4.

For the variant A56G C79A, the self-cleavage stood at 1.18.

Take U60C U66C: the self-cleavage is 0.29.

With U58G U72A, the self-cleavage came out at 0.24.

With C23A U80G, the self-cleavage is 0.51.

With C29U A45G, the self-cleavage worked out at 0.42.

U25C A77U: the self-cleavage worked out at 0.26.

C23A C34U: the self-cleavage was found to be 0.22.

On to G8A C37U, for which the self-cleavage is 0.05.

On to C59U U60A, for which the self-cleavage came to 0.28.

On to C32U G55A, for which the self-cleavage is 0.14.

Take G6U A20U: the self-cleavage stood at 0.34.

On to U54C G73A, for which the self-cleavage was 1.26.

With C59A G70U, the self-cleavage was found to be 0.13.

In the case of A5G A15U, the self-cleavage came to 0.61.

With U31A C32U, the self-cleavage is 0.13.

On to C62U A77G, for which the self-cleavage is 0.15.

For the variant A28G C50G, the self-cleavage was determined as 0.29.

In the case of U31G U54C, the self-cleavage was 0.63.

Consider A47G U67C, for which the self-cleavage was 0.35.

For the variant U72C U76G, the self-cleavage was found to be 1.23.

Consider G22U U43A, for which the self-cleavage worked out at 0.34.

As to G33A C39U, the self-cleavage is 0.16.

For the variant G33A U60A, the self-cleavage came out at 0.15.

Consider A28C G52U, for which the self-cleavage is 0.64.

Take C12U G46A: the self-cleavage is 0.68.

For the variant A13U A28U, the self-cleavage is 1.01.

Consider U51A C68U, for which the self-cleavage came out at 1.04.

Regarding A28G A56U, the self-cleavage came to 0.34.

For the variant C32G A77U, the self-cleavage was 0.2.

On to C27U A35U, for which the self-cleavage was 0.32.

Regarding C27U A35G, the self-cleavage is 0.41.

As for U25G A28U, the self-cleavage came to 0.31.

In the case of A56U U76G, the self-cleavage was 0.89.

In the case of C11A U78A, the self-cleavage came out at 0.47.

As to A3U A21G, the self-cleavage came to 0.79.

Consider A3U A47C, for which the self-cleavage came out at 0.69.

Consider U49C C79U, for which the self-cleavage is 0.76.

With G16U U49G, the self-cleavage came out at 0.14.

For the variant A20G C44U, the self-cleavage was 0.21.

U25C U66A: the self-cleavage was 0.35.

In the case of U48G, the self-cleavage came out at 0.5.

For the variant G6A U49C, the self-cleavage is 0.15.

As for G8A G30U, the self-cleavage came out at 0.16.

As for G8U U48C, the self-cleavage turned out to be 0.38.

As for A3U G73C, the self-cleavage was 1.25.

For the variant A20G G61U, the self-cleavage amounted to 0.39.

Turning to A13U U41A, the self-cleavage amounted to 0.26.

Take G30A C71U: the self-cleavage is 0.18.

Regarding G16A U51C, the self-cleavage was found to be 0.18.

For A2U A45U, the self-cleavage was 0.54.

For the variant A5U C79U, the self-cleavage is 1.24.

On to A5C A64G, for which the self-cleavage was 1.

In the case of G36A A47U, the self-cleavage was found to be 0.13.

As to A47C U74C, the self-cleavage was found to be 0.7.

Turning to U31A A65U, the self-cleavage turned out to be 0.37.

Take G16U U54G: the self-cleavage turned out to be 0.55.

As for A35C U72C, the self-cleavage worked out at 1.14.

Consider A3G C68U, for which the self-cleavage is 0.79.

G8A U60C: the self-cleavage stood at 0.23.

Consider C4U U43C, for which the self-cleavage was 0.93.

Turning to U26A U58C, the self-cleavage was 0.39.

U31C A47G: the self-cleavage amounted to 0.8.

Turning to C4A G9A, the self-cleavage stood at 0.64.

On to U69C A77U, for which the self-cleavage is 0.77.

On to U54A U74C, for which the self-cleavage was 1.28.

Consider C12U C23U, for which the self-cleavage is 0.52.

G61A U74C: the self-cleavage is 1.12.

For A28C G61U, the self-cleavage was 0.2.

For C12G A18G, the self-cleavage is 0.17.

Take G8C C40U: the self-cleavage came out at 0.13.

Consider U41G U60C, for which the self-cleavage is 0.18.

A5G U51G: the self-cleavage is 0.68.

For the variant A47U U66A, the self-cleavage is 0.26.

On to C39U U72C, for which the self-cleavage stood at 0.71.

As to U41G U49C, the self-cleavage is 0.38.

As for A65U A77U, the self-cleavage is 0.25.

U25A U58G: the self-cleavage amounted to 0.1.

As to C23U U43A, the self-cleavage stood at 0.34.

On to A5G C34G, for which the self-cleavage stood at 0.52.

Turning to G7C A13C, the self-cleavage was 0.09.

As for C38A A64U, the self-cleavage was determined as 0.09.

On to U67A U72A, for which the self-cleavage was determined as 0.38.

Take A13U U74C: the self-cleavage turned out to be 1.28.

On to U31G U72G, for which the self-cleavage amounted to 0.92.

C23A U60C: the self-cleavage came out at 0.33.

In the case of C38A G63U, the self-cleavage came to 0.1.

Regarding A28G U31A, the self-cleavage turned out to be 0.33.

Take U48A G55A: the self-cleavage came out at 0.21.

Regarding A35C A77U, the self-cleavage is 1.07.

As for A35G U76C, the self-cleavage was found to be 1.29.

C39U U41A: the self-cleavage was determined as 0.25.

With U31C G36U, the self-cleavage came to 0.14.

Consider U54A C68U, for which the self-cleavage was found to be 1.03.

As for A3G A13G, the self-cleavage stood at 0.95.

For the variant A15C U72A, the self-cleavage was determined as 0.8.

For the variant C38A U58C, the self-cleavage is 0.24.

With A20G U67G, the self-cleavage was 0.25.

As to U49C U80A, the self-cleavage is 0.51.

Consider A18G C68U, for which the self-cleavage worked out at 0.52.

As to C27G U76C, the self-cleavage is 0.22.

With A65U U74A, the self-cleavage is 0.44.

Regarding U60A U78A, the self-cleavage worked out at 0.72.

In the case of G9U C59U, the self-cleavage turned out to be 0.06.

On to A5U C23U, for which the self-cleavage was determined as 0.25.

C38U A64C: the self-cleavage was 0.82.

As to C38U A64G, the self-cleavage is 0.37.

For G22U U72C, the self-cleavage came out at 0.3.

In the case of U43A U78G, the self-cleavage came to 1.29.

For C23G U49C, the self-cleavage turned out to be 0.16.

Turning to G16A C23A, the self-cleavage came to 0.08.

Consider A20C U48C, for which the self-cleavage was determined as 0.28.

Turning to A47C G55U, the self-cleavage came out at 0.16.

For the variant A3C G46A, the self-cleavage worked out at 0.25.

For C12U U48G, the self-cleavage worked out at 0.94.

With U49A A65G, the self-cleavage was 0.29.

In the case of A20U U41C, the self-cleavage stood at 0.28.

Turning to A3G A47G, the self-cleavage was determined as 0.92.

For the variant U49A U54C, the self-cleavage was 0.54.

Regarding C44U U76C, the self-cleavage amounted to 0.25.

In the case of A65C U72C, the self-cleavage is 0.35.

With G36U U76A, the self-cleavage was 0.2.

For the variant C40G U54G, the self-cleavage is 0.29.

In the case of C23U, the self-cleavage worked out at 0.35.

In the case of G63U U74G, the self-cleavage worked out at 1.21.

In the case of C23U G46A, the self-cleavage was found to be 0.06.

C14U U43A: the self-cleavage stood at 1.18.

Turning to U80G, the self-cleavage amounted to 1.18.

As for A15U U48A, the self-cleavage came to 0.17.

C23U U80G: the self-cleavage is 0.26.

C14U A47G: the self-cleavage stood at 0.7.

U43A U51A: the self-cleavage came to 0.97.

Take G42U U60C: the self-cleavage was 0.17.

Regarding G46A, the self-cleavage was 0.33.

Take G10A U41C: the self-cleavage stood at 0.31.

Regarding C4U A15G, the self-cleavage came to 1.17.

As for U41C G46C, the self-cleavage was determined as 0.42.

In the case of G42A A65U, the self-cleavage worked out at 0.3.

As to C40U, the self-cleavage came out at 0.76.

Turning to G24C U48C, the self-cleavage came to 0.22.

Consider A15U U51A, for which the self-cleavage came to 0.82.

Turning to G7U U58A, the self-cleavage came out at 0.25.

Regarding A20U C44A, the self-cleavage turned out to be 0.27.

As to U25G C34U, the self-cleavage is 0.15.

Take C32G U80C: the self-cleavage was 0.08.

With A28C U69C, the self-cleavage was determined as 0.19.

In the case of G22A U31A, the self-cleavage was 0.34.

As to C34U G36U, the self-cleavage worked out at 0.14.

Regarding G9A U69G, the self-cleavage was 0.2.

Take G10A A18G: the self-cleavage amounted to 0.23.

U54A A65C: the self-cleavage amounted to 0.29.

With G19C U41A, the self-cleavage was determined as 0.44.

Take U26C A65G: the self-cleavage amounted to 0.3.

Regarding G6U U66C, the self-cleavage was 0.2.

For the variant G7A A13G, the self-cleavage is 0.3.

Consider A5U C50A, for which the self-cleavage stood at 1.01.
